Reference: patent US11608374 (dated 2023)
Numbering of substitutions follows the chain as printed.

T1: cynomolgus sclerostin (cynomolgus monkey)
T1 chain: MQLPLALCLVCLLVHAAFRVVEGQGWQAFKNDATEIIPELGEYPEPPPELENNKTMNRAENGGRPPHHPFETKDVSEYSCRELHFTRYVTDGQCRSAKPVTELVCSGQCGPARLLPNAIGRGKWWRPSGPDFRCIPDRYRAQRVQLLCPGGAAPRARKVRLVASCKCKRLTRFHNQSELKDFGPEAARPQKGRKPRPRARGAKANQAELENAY

T2: human sclerostin (human)
T2 chain: T1 chain with A16T, Q93P, A152E, P184T, G201S

T3: mouse sclerostin (mouse)
T3 chain: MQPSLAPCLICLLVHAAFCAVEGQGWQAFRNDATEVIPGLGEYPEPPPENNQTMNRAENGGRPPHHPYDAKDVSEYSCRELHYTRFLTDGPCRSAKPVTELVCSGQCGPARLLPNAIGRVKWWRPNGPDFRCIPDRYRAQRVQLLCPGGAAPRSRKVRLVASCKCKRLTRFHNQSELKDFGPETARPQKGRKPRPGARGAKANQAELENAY

T4: rat sclerostin (rat)
T4 chain: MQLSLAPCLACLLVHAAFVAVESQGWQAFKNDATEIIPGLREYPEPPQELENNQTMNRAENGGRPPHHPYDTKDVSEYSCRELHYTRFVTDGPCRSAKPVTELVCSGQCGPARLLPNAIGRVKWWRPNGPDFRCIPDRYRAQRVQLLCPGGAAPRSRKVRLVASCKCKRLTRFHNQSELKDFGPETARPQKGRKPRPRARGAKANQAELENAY

B1: amH852/bsH656/abL152 (antibody)
chain 1: EVQLVQSGAEVKKPGASVKVSCKASGYTFTDYNMHWVRQAPGKGLEWMGEIMPHSGRYGLKQKFKGRVTMTTDTSTSTAYMELRSLRSDDTAVYYCARLEYSEIYDDWYFDVWGQGTTVTVSS
chain 2: DIQMTQSPSSLSASVGDRVTITCRASEGIHDALAWYQQKPGKAPKLLIYWASTLESGVPSRFSGSGSGTDFTLTISSLQPEDFATYYCQQGDTLPYTFGGGTKVEIK
chain 3: QVQLVQSGAEVKKPGASVKVSCKVSGYTLTHTFMHWVRQAPGKGLEWMGWSDPEIGDTEYASKFQGRVTMTEDTSTDTAYMELSSLRSEDTAVYYCATGDTTYKFDYWGQGTLVTVSS
chain 4: B1 chain 2
B2: amH848/bsH656/abL152 (antibody)
chain 1: B1 chain 1 with D31S, T72R, T76I, R84S, S85R
chain 2: B1 chain 2
chain 3: B1 chain 3
chain 4: B1 chain 2
B3: amH848/bsH638/abL152 (antibody)
chain 1: B1 chain 1 with D31S, T72R, T76I, R84S, S85R
chain 2: B1 chain 2
chain 3: B1 chain 3 with T58H
chain 4: B1 chain 2
B4: amH852/bsH638/abL152 (antibody)
chain 1: B1 chain 1
chain 2: B1 chain 2
chain 3: B1 chain 3 with T58H
chain 4: B1 chain 2
B5: amH852/abL152 (antibody, V domains shown)
VH: B1 chain 1
VL: B1 chain 2
B6: mabA (antibody, V domains shown)
VH: B1 chain 1 with K43Q, M52N, H54N, R57G, Y58A, L60Y, K61N, E100G, S102D, E103D
VL: B1 chain 2 with E27Q, G28D, H30S, D31N, A32Y, A34N, W50Y, A51T, T53R, E55L
B7: mabA_NpH1 (antibody, V domains shown)
VH: EVQLVQSGAEVKKPGASVKVSCKASGYTFTDYNMHWVRQAPGQGLEWMGEINPNSGGAGYNQKFKGRVTMTTDTSTSTAYMELRSLRSDDTAVYYCARLGYDDIYDDWYFHVWGQGTTVTVSS
VL: B1 chain 2 with E27Q, G28D, H30S, D31N, A32Y, A34N, W50H, A51T, T53R, E55L
B8: mabA_NpH2 (antibody, V domains shown)
VH: B7 VH with H111D
VL: B1 chain 2 with E27Q, G28D, H30S, D31N, A32Y, A34N, W50H, A51T, T53R, E55L
B9: mabA_pH1 (antibody, V domains shown)
VH: B7 VH with G57H, G100H, H111D
VL: B1 chain 2 with E27H, G28D, H30S, D31N, A32Y, A34N, W50Y, A51T, T53R, E55L
B10: mabA_pH2 (antibody, V domains shown)
VH: B7 VH with G57H, G100H, D103H, H111D
VL: B1 chain 2 with E27H, G28D, H30S, D31N, A32Y, A34N, W50Y, A51T, T53R, E55L
B11: mabA_pH3 (antibody, V domains shown)
VH: B7 VH with N54H, G57H, G100H, Y105H, H111D
VL: B1 chain 2 with E27H, G28D, H30S, D31N, A32Y, A34N, W50Y, A51T, T53R, E55L

Molecular target: T1, cynomolgus sclerostin
Assay: SPR, pH 7.4

koff [s⁻¹] | Binder
0.000405 | B1
0.000606 | B2
0.000606 | B3
0.000387 | B4
0.0019 | B5

Molecular target: T2, human sclerostin
Assay: SPR, pH 7.4

koff [s⁻¹] | Binder
0.000419 | B1
0.000515 | B2
0.000596 | B3
0.000418 | B4
0.00257 | B5

Molecular target: T1, cynomolgus sclerostin
Assay: SPR, pH 5.8, 37C

Kd [pM] | Binder
1400 | B6
459 | B7
627 | B8

Molecular target: T2, human sclerostin
Assay: SPR, pH 5.8, 37C

Kd [pM] | Binder
1440 | B6
435 | B7
690 | B8

Molecular target: T1, cynomolgus sclerostin
Assay: SPR, pH 7.4, 37C

Kd [pM] | Binder
202 | B9
75.3 | B6
189 | B7
280 | B8
252 | B10

Molecular target: T3, mouse sclerostin
Assay: SPR, pH 5.8, 37C

Kd [pM] | Binder
5210 | B9
503 | B7
1050 | B11
0.0168 | B8
5430 | B10

Molecular target: T4, rat sclerostin
Assay: SPR, pH 5.8, 37C

Kd [pM] | Binder
4200 | B9
0.00307 | B6
292 | B7
0.0736 | B8
4450 | B10

Molecular target: T2, human sclerostin
Assay: SPR, pH 7.4, 37C

Kd [pM] | Binder
213 | B9
80 | B6
193 | B7
323 | B8
258 | B10

Molecular target: T3, mouse sclerostin
Assay: SPR, pH 7.4, 37C

Kd [pM] | Binder
63.2 | B9
0.00302 | B6
204 | B7
287 | B11
5.57 | B8
80.7 | B10

Molecular target: T4, rat sclerostin
Assay: SPR, pH 7.4, 37C

Kd [pM] | Binder
25.2 | B9
0.0938 | B6
82.6 | B7
184 | B11
6.61 | B8
31.2 | B10

Molecular target: T1, cynomolgus sclerostin
Assay: SPR, pH 7.4 to 5.8

koff [s⁻¹] | Binder
0.116 | B1
0.374 | B2
0.227 | B3
0.0598 | B4
0.107 | B5

Molecular target: T2, human sclerostin
Assay: SPR, pH 7.4 to 5.8

koff [s⁻¹] | Binder
0.0593 | B1
0.222 | B2
0.1 | B3
0.028 | B4
0.0882 | B5

Molecular target: T4, rat sclerostin
Assay: SPR, pH 7.4 to 5.8, 37C

koff [s⁻¹] | Binder
0.0182 | B11

Molecular target: T1, cynomolgus sclerostin
Assay: SPR, pH 7.4 to 5.8, 37C

koff [s⁻¹] | Binder
0.0156 | B9
0.0165 | B10

Molecular target: T2, human sclerostin
Assay: SPR, pH 7.4 to 5.8, 37C

koff [s⁻¹] | Binder
0.0131 | B9
0.0139 | B10
